# From patent publication US20230192789A1, “STRUCTURALLY-STABILIZED AND HDMX-SELECTIVE P53 PEPTIDES AND USES THEREOF” (Dana-Farber Cancer Institute, Inc., priority 2020, published 2023)
# Bridges are numbered along the chain shown (N, C = ends). Where no end group is shown, it is not given here. [ ]: non-standard residue; d: D form. The star is where a group is joined. Biotin = O=C1N[C@H]2[C@H](CS[C@H]2CCCCC(=O)*)N1; R8 = C=CCCCCCC[C@@](C)(N)C(=O)O; S5 = C=CCCC[C@](C)(N)C(=O)O
# T1: recombinant HDMX (amino acids 1-490 of SEQ ID NO:104) (Homo sapiens, UniProt O15151)
# T1 construct: thioredoxin (N, cleaved yes); S tag (N, cleaved yes); hexahistidine (N, cleaved yes); made in house; host or cells: E. coli (inferred: pET32-LIC vector, handled as described for HDM2 in BL21(DE3))
# T1 sequence (O15151 1-490): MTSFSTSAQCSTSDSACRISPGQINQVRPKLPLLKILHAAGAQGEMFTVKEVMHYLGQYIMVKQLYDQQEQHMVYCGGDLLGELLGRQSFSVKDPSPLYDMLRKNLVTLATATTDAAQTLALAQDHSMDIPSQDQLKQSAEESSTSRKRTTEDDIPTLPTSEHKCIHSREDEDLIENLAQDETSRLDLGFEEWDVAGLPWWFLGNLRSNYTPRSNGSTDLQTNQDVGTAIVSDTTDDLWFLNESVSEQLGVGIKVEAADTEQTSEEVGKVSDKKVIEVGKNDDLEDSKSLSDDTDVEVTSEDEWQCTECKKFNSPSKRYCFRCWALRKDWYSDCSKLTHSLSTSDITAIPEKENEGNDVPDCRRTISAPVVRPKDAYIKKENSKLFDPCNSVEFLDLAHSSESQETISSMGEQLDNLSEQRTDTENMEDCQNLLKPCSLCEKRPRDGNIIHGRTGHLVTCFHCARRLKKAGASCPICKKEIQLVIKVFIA
# B1: ATSP-7041 B26E (peptide)
# peptide: LTF[R8]EYWAQE[S5]SAA-NH2
# modifications: staple 4-11; not fully specified; printed as LTF8EYWAQEXSAA
# notes: also called ATSP B26E; LTF8EYWAQEXSAA
# B2: ATSP-7041 B26G (peptide)
# peptide: Biotin-LTF[R8]EYWAQG[S5]SAA-NH2
# modifications: staple 4-11
# SMILES: CC(C)C[C@H](NC(=O)CCCC[C@@H]1SC[C@@H]2NC(=O)N[C@@H]21)C(=O)N[C@H](C(=O)N[C@@H](Cc1ccccc1)C(=O)N[C@]1(C)CCCCCCC=CCCC[C@@](C)(C(=O)N[C@@H](CO)C(=O)N[C@@H](C)C(=O)N[C@@H](C)C(N)=O)NC(=O)CNC(=O)[C@H](CCC(N)=O)NC(=O)[C@H](C)NC(=O)[C@H](Cc2c[nH]c3ccccc23)NC(=O)[C@H](Cc2ccc(O)cc2)NC(=O)[C@H](CCC(=O)O)NC1=O)[C@@H](C)O
# B3: ATSP-7041 B26D (peptide)
# peptide: Biotin-LTF[R8]EYWAQD[S5]SAA-NH2
# modifications: staple 4-11
# SMILES: CC(C)C[C@H](NC(=O)CCCC[C@@H]1SC[C@@H]2NC(=O)N[C@@H]21)C(=O)N[C@H](C(=O)N[C@@H](Cc1ccccc1)C(=O)N[C@]1(C)CCCCCCC=CCCC[C@@](C)(C(=O)N[C@@H](CO)C(=O)N[C@@H](C)C(=O)N[C@@H](C)C(N)=O)NC(=O)[C@H](CC(=O)O)NC(=O)[C@H](CCC(N)=O)NC(=O)[C@H](C)NC(=O)[C@H](Cc2c[nH]c3ccccc23)NC(=O)[C@H](Cc2ccc(O)cc2)NC(=O)[C@H](CCC(=O)O)NC1=O)[C@@H](C)O
# B4: ATSP-7041 B26H (peptide)
# peptide: Biotin-LTF[R8]EYWAQH[S5]SAA-NH2
# modifications: staple 4-11
# SMILES: CC(C)C[C@H](NC(=O)CCCC[C@@H]1SC[C@@H]2NC(=O)N[C@@H]21)C(=O)N[C@H](C(=O)N[C@@H](Cc1ccccc1)C(=O)N[C@]1(C)CCCCCCC=CCCC[C@@](C)(C(=O)N[C@@H](CO)C(=O)N[C@@H](C)C(=O)N[C@@H](C)C(N)=O)NC(=O)[C@H](Cc2c[nH]cn2)NC(=O)[C@H](CCC(N)=O)NC(=O)[C@H](C)NC(=O)[C@H](Cc2c[nH]c3ccccc23)NC(=O)[C@H](Cc2ccc(O)cc2)NC(=O)[C@H](CCC(=O)O)NC1=O)[C@@H](C)O
# B5: ATSP-7041 B26C (peptide)
# peptide: Biotin-LTF[R8]EYWAQC[S5]SAA-NH2
# modifications: staple 4-11
# SMILES: CC(C)C[C@H](NC(=O)CCCC[C@@H]1SC[C@@H]2NC(=O)N[C@@H]21)C(=O)N[C@H](C(=O)N[C@@H](Cc1ccccc1)C(=O)N[C@]1(C)CCCCCCC=CCCC[C@@](C)(C(=O)N[C@@H](CO)C(=O)N[C@@H](C)C(=O)N[C@@H](C)C(N)=O)NC(=O)[C@H](CS)NC(=O)[C@H](CCC(N)=O)NC(=O)[C@H](C)NC(=O)[C@H](Cc2c[nH]c3ccccc23)NC(=O)[C@H](Cc2ccc(O)cc2)NC(=O)[C@H](CCC(=O)O)NC1=O)[C@@H](C)O
# Columns and labels:
# [1] = target: T1, recombinant HDMX (amino acids 1-490 of SEQ ID NO:104); test: Competitive streptavidin pull-down of biotinylated peptides with 1:1 recombinant HDM2/HDMX mixture, HDMX western; type: binding; settings: biotinylated stapled peptide, 1:1 mixture of recombinant HDM2 and HDMX
# [2] = target: T2, recombinant HDM2 (amino acids 17-125 of SEQ ID NO:103) (human, UniProt Q00987 17-125); test: streptavidin pull-down of biotinylated peptide with recombinant HDM2 and HDMX (1:1 mixture per paragraph 301), western blot
# T2 construct: also called MDM2; not shown: thrombin cleavage site (pET28a vector)
# T2 sequence (Q00987 other isoform, or with tags, fused parts or gaps): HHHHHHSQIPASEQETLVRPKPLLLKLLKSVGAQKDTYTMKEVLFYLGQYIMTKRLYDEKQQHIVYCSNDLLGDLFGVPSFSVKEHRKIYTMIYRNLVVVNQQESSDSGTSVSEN
Molecule,HDMX versus HDM2 binding selectivity [1],also measured
"SAH-p53-4 L25E: Formula (I) stapled peptide: [Xaa]w LSQETF, [Xaa]x DLWKEL, [Xaa]y EN (LSQETF[R8]DLWKEL[S5]EN-NH2; staple 7-14; not fully specified)",dual selectivity to HDMX and HDM2,
"SAH-p53-4 L25R: Formula (I) stapled peptide: [Xaa]w LSQETF, [Xaa]x DLWKRL, [Xaa]y EN (LSQETF[R8]DLWKRL[S5]EN-NH2; staple 7-14; not fully specified)",dual selectivity to HDMX and HDM2,
"SAH-p53-4 N29E: Formula (I) stapled peptide: [Xaa]w LSQETF, [Xaa]x DLWKLL, [Xaa]y EE (LSQETF[R8]DLWKLL[S5]EE-NH2; staple 7-14; not fully specified)",dual selectivity to HDMX and HDM2,
"SAH-p53-4 N29R: Formula (I) stapled peptide: [Xaa]w LSQETF, [Xaa]x DLWKLL, [Xaa]y ER (LSQETF[R8]DLWKLL[S5]ER-NH2; staple 7-14; not fully specified (N-terminus))",HDMX selectivity over HDM2,HDMX versus HDM2 binding selectivity ([1]; listed as SEQ ID NO:29): selectivity to HDMX
"SAH-p53-4 Q16A: Formula (I) stapled peptide: [Xaa]w LSAETF, [Xaa]x DLWKLL, [Xaa]y EN (LSAETF[R8]DLWKLL[S5]EN-NH2; staple 7-14; not fully specified)",dual selectivity to HDMX and HDM2,
"SAH-p53-4 Q16E: Formula (I) stapled peptide: [Xaa]w LSEETF, [Xaa]x DLWKLL, [Xaa]y EN (LSEETF[R8]DLWKLL[S5]EN-NH2; staple 7-14; not fully specified (N-terminus))",HDMX selectivity over HDM2,HDMX versus HDM2 binding selectivity ([1]; listed as SEQ ID NO:32): selectivity to HDMX
"SAH-p53-4 Q16R: Formula (I) stapled peptide: [Xaa]w LSRETF, [Xaa]x DLWKLL, [Xaa]y EN (LSRETF[R8]DLWKLL[S5]EN-NH2; staple 7-14; not fully specified)",dual selectivity to HDMX and HDM2,
"SAH-p53-4 S15A: Formula (I) stapled peptide: [Xaa]w LAQETF, [Xaa]x DLWKLL, [Xaa]y EN (LAQETF[R8]DLWKLL[S5]EN-NH2; staple 7-14; not fully specified)",selectivity to HDM2,
"SAH-p53-4 S15E: Formula (I) stapled peptide: [Xaa]w LEQETF, [Xaa]x DLWKLL, [Xaa]y EN (LEQETF[R8]DLWKLL[S5]EN-NH2; staple 7-14; not fully specified)",selectivity to HDM2,
"SAH-p53-4 S15R: Formula (I) stapled peptide: [Xaa]w LRQETF, [Xaa]x DLWKLL, [Xaa]y EN (LRQETF[R8]DLWKLL[S5]EN-NH2; staple 7-14; not fully specified)",selectivity to HDM2,
"SAH-p53-4 T18A: Formula (I) stapled peptide: [Xaa]w LSQEAF, [Xaa]x DLWKLL, [Xaa]y EN (LSQEAF[R8]DLWKLL[S5]EN-NH2; staple 7-14; not fully specified)",dual selectivity to HDMX and HDM2,
"SAH-p53-4 T18E: Formula (I) stapled peptide: [Xaa]w LSQEEF, [Xaa]x DLWKLL, [Xaa]y EN (LSQEEF[R8]DLWKLL[S5]EN-NH2; staple 7-14; not fully specified)",dual selectivity to HDMX and HDM2,
"SAH-p53-4 T18R: Formula (I) stapled peptide: [Xaa]w LSQERF, [Xaa]x DLWKLL, [Xaa]y EN (LSQERF[R8]DLWKLL[S5]EN-NH2; staple 7-14; not fully specified)",selectivity to HDM2,
B1,,binding result [2]: no binding
B2,,binding result [2]: no binding
B3,,binding result [2]: no binding
B4,,binding result [2]: no binding
B5,,binding result [2]: no binding
